Reference: patent publication US20210253725A1 (BIONTECH, published 2021)

T1: CD27 expressed on the cell surface (HT1080_CD27 cells) (human, UniProt P26842 20-260)
T1 sequence (looked up): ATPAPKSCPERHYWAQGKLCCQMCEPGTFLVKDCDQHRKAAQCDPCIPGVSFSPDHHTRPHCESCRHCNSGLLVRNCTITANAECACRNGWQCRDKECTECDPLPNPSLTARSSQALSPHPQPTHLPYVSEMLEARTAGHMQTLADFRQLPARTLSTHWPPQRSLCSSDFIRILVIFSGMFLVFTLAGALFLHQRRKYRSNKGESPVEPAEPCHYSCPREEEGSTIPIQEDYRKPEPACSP

T2: CD27 protein (His-tagged, Sino Biological Inc. 10039-H08B1) (human, UniProt P26842 20-192)
T2 construct: bought; coated onto ELISA plates; also called human CD27; recombinant protein; not shown: His tag
T2 sequence (looked up): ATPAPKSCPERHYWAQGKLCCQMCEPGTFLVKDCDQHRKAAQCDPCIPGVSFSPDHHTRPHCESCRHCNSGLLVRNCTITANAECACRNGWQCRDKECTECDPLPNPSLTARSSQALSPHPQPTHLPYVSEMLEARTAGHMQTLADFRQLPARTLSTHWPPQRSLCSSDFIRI


Assays:
[1] = target: T1, CD27 expressed on the cell surface …; test: cell-based or functional assay
[2] = target: T2, CD27 protein (His-tagged, Sino …); test: ELISA on coated His-tagged CD27
[3] = target: T1, CD27 expressed on the cell surface …; test: cellular binding assay, HT1080_CD27 cells
Further: test concentration or dose not given here.

IL-8, cross-linked by F(ab')2 fragment [abs. corr.] [1] [abs. corr.] | IL-8 [abs. corr.] [1] [abs. corr.] | ELISA [abs. corr.] [2] [abs. corr.] | Cellular binding assay [RFU] [3] [RFU] | Binder
1.04 | 0.08 | 3.19 | 333 | P018.S.10.A.B01 (antibody, V domains shown, V regions on human Ig constant parts; also called AB27_166) VH: QSLEESGGRLVTPGTPLTLTCTASGFSLSSYYMSWVRQAPGKGLEWIGIIDRAGTTYYATWAKGRFTISRTSTTVDLKMTSPTTEDTGTYFCARNFIYGVGTYYGSDLWGQGTLVTVSS VL: DVVMTQTPASVSDPVGGTVTIKCQASESISRRLAWYQQKPGQPPKLLIYGASDLASGVPSRFSGSGSGTEFTLTISGVQSDDAATYYCQDTDYGSGHLGAFGGGTEVVVK
1.16 | 0.678 | 3.18 | 338 | P018.S.06.A.F04 (antibody, V domains shown, V regions on human Ig constant parts; also called AB27_109) VH: QQQLEESGGGLVKPEGSLTLTCKASGFTLSSYLMCWVRQAPGKGLELIGCIGTYSGATYYGSWAKDRFTIAKTSSTTVTLQMTSLTAADTATYFCARDYNFALWGPGTLVTVSS VL: AIVMTQTPSSKSVPVGDTVTINCQASESVYNNNYLSWFQQKPGQPPKLLIYGASTLTSGVPSRFKGSGSGTQFTLTISDVVSDDAATYYCAGYKSSWTDGNAFGGGTEVVVK
1.64 | 0.276 | 3.21 | 342 | P018.S.08.A.A03 (antibody, V domains shown, V regions on human Ig constant parts; also called AB27_136) VH: QSLEESGGRLVTPGTPLTLTCTASGFSLSSYGMIWVRQAPGKGLEWIGMIIDVTYTYYASWAKGRFTISKTSTTVDLKMTSLTTEDTATYFCARTPGYGIYAYGNLWGQGTLVTVSS VL: AQVLTQTPSPVSAAVGGTVTISCQSSQSVYGNNWLAWYQQKPGQPPKLLIYYASTLASGVPSRFKGSGSGTQFTLTISEVQSDDAATYYCQGYYSSAAYVFGGGTEVVVK
1.58 | 0.546 | 3.21 | 292 | P018.S.03.A.G03 (antibody, V domains shown, V regions on human Ig constant parts; also called AB27_57) VH: QEHLEESGGGLVQPEGSLTLTCKASGFDFSSNYYMSWVRQAPGTGLEWIACIDSGSSGSTWYASWVKGRFTISKTSSTTVTLQMTSLTDADTAAYFCVRDDVGSSYEYYFSLWGPGTLVTVSS VL: DVVMTQTPASVSEPVGGTVTIKCQASQSIGSFLGWYQQKPGQPPKLLIYQASKLASGVPSRFKGSGSGTEYTLTISDLESADAAAYYCQTYFGSDSYVFGGGTEVVVK
1.56 | 0.079 | 3.21 | 360 | P018.S.10.A.C03 (antibody, V domains shown, V regions on human Ig constant parts; also called AB27_172) VH: QSVEESGGRLVTPGTPLTLTCTVSGFSLSSYYMIWVRQAPGKGLEWIGIINTSGGAYYATWANGRFTISRTSTTVDLKITSPTTEDTATYFCARYLDNGFYCPDLWGQGTLVIVSS VL: DIVMTQTPSSVSEAVGGTVTIKCQASEDIYTLLAWYQQKPGQPPKLLIYKASILASGVSSRFKGGGSGADFTLTISDLESADAATYYCQSTYYGAAYIGAFGGGTEVVVK
1.05 | 0.245 | 3.19 | 360 | P018.S.03.A.D06 (antibody, V domains shown, V regions on human Ig constant parts; also called AB27_51) VH: QSLEESGGRLVTPGTPLTLTCTASGFSLSSYWMSWVRQAPGKGLEWIGYIYAGSGSAYYASWVKGRFTISKTSTTVDLKISSPTTEDTATYFCGRGNYDGYINVYDLWGPGTLVTVSS VL: DVVMTQTPSSVEAAVGGTVTIKCQASQSIGSYLAWYQKKPGQPPKLLIYAAANLAAGVPSRFKGSGSGTDFTLTINDLESADAATYYCQNNNGAYGSAYVGAFGGGTEVVVK
1.67 | 0.205 | 3.19 | 196 | P018.S.02.A.G04 (antibody, V domains shown, V regions on human Ig constant parts; also called AB27_39) VH: QSLEESGGRLVTPGGSLTLTCTVSGIDLSSYAMGWVRQAPGKGLEYIGIIYTSNRTHYATWAKGRFTISKSSTTVDLKATSLTTEDTATYFCGRYGRGSGGYYYGMDLWGPGTLVTVSS VL: DIVMTQTPASVEAAVGGTVTIKCQASQSGDNYCSWYQQKPGQPPKLLIYQASKLTSGVPSRFRGSRSGTEYTLTISDLESADAATYYCQNYCAGSGVCLGIAFGGGTEVVVK
1.74 | 0.274 | 3.16 | 177 | P018.S.07.A.G04 (antibody, V domains shown, V regions on human Ig constant parts; also called AB27_130) VH: QSLEESGGRLVTPGTPLTLTCTVSGIDLSSYAMGWVRQAPGKGLEYIAIIYTTNRTHYATWAKGRFTISKSSTTVDLKATSLTTEDTATYFCGRYGRGSGGYYYGMDLWGPGTLVTVSS VL: DIVMTQTPASVEAAVGGTVTIKCQASQSGDNYCSWYQQKPGQPPKLLIYQASKLTSGVPSRFRGSRSGTEYTLTISDLESADAATYYCQNYCAGSGVCLGIAFGGGTEVVVK
1.95 | 0.504 | 3.17 | 214 | P018.S.09.A.A05 (antibody, V domains shown, V regions on human Ig constant parts; also called AB27_145) VH: QSVEESGGRLVTPGTPLTLTCTVSGFSLSSYAMSWVRQAPGKGLEWIGYIWSGGTTDYASWAKGRFTISKTSTTVDLKITDPTTEDTATYFCARGLGDRGSSDYYMPLKLWGQGTLVTVSS VL: AAVLTQTPSPVSAAVGGTVTINCQASEDIESYLAWYQQKPGQPPKLLIYSTSNLASGVSSRFRGSGSGTQLTLTISDLESADAATYYCQCTYDGSSAVWGAFGGGTEVVVK
1.4 | 0.327 | 3.19 | 349 | P018.S.01.A.C05 (antibody, V domains shown, V regions on human Ig constant parts; also called AB27_9) VH: QSLEESGGGLVQPEGSLTLTCTASGFSFSSRYYMCWVRQAPGKGLELIACIDTSSGSTWYASWAKGRFTVSKTSSTTVTLQMTSLTAADTATYFCARDLYHENSDGDWWGPGTLVTVSS VL: AFELTQTPSSVEAAVGGTVTIKCQASESINNYLAWYQQKPGQPPKLLIYKASTLASGVSSRFKGSGSGTDFTLTISGVQSDDAATYYCQSYYGASGSGSNVFGGGTEVVVK
2.17 | 0.872 | 3.52 | 353 | P018.S.09.A.E05 (antibody, V domains shown, V regions on human Ig constant parts; also called AB27_155) VH: QSLEESGGRLVTPGTPLTLTCTVSGIDLSRYDMSWVRQAPGKGLEWIGFIGASGSTYYASWVKGRFTISKTSTTVDLKITSPTTEDTATYFCAREETDSRGYYYSLWGPGTPVTVSS VL: ALVMTQTPASVEAAVGGTVTINCQASQSISDLLGWYQQKPGQPPKLLIYDASDLASGVPSRFSGSGSGTEFTLTISGVQSDDAATYYCQQGYSINNVDNAFGGGTEVVVK
1.15 | 0.055 | 3.2 | 317 | P018.S.07.A.E05 (antibody, V domains shown, V regions on human Ig constant parts; also called AB27_126) VH: QSLEESGGRLVTPGGSLTLTCTVSGIDLSSYAMIWVRQAPGKGLEWIGYIYGGSGSTWYASWAKGRFTISKTSSTTVDLKMTSLTTEDTATYFCARAYDSGYIGNSFYIFDPWGPGTLVTVSS VL: DIVMTQTPASVSATVGGTVTIKCQASQSISSRLAWYQQKPGQPPKLLIYSASTLASGVSSRFRGSGSGTEFTLTISDLESADGATYYCAGYGGLGITAFGGGTEVVVK
